Test results published in patent publication US20260234255A1 (Genmab, published 2026).
Substitutions are numbered along the chain they refer to.

T1: human CD30 (human, UniProt P28908 19-595)
T1 construct: The same molecule is used for CD30 on HL/ALCL/NHL cell lines; also called huCD30; TNFRSF8
T1 sequence: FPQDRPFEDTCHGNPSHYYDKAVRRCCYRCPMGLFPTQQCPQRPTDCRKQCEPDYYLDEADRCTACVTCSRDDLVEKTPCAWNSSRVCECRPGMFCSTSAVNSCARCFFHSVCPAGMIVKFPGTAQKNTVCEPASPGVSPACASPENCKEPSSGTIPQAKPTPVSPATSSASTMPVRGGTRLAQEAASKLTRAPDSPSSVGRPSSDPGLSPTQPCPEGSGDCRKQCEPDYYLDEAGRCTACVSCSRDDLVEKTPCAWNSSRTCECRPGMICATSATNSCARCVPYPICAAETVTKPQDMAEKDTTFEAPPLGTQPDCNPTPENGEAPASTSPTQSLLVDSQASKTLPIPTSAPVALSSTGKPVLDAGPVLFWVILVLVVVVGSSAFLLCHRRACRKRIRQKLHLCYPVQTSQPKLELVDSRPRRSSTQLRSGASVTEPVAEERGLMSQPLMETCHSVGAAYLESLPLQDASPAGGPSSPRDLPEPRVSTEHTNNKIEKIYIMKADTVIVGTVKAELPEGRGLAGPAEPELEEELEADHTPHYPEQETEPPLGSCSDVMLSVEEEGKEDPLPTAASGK

B1: bsG1-huCD3-FEALxCD30-MDX060-FEAR (bispecific antibody, human IgG1, kappa, lambda)
heavy 1: not shown
light 1: not shown
heavy 2: QVQLQQWGAGLLKPSETLSLTCAVYGGSFSAYYWSWIRQPPGKGLEWIGDINHGGGTNYNPSLKSRVTISVDTSKNQFSLKLNSVTAADTAVYYCASLTAYWGQGSLVTVSSASTKGPSVFPLAPSSKSTSGGTAALGCLVKDYFPEPVTVSWNSGALTSGVHTFPAVLQSSGLYSLSSVVTVPSSSLGTQTYICNVNHKPSNTKVDKRVEPKSCDKTHTCPPCPAPEFEGGPSVFLFPPKPKDTLMISRTPEVTCVVVAVSHEDPEVKFNWYVDGVEVHNAKTKPREEQYNSTYRVVSVLTVLHQDWLNGKEYKCKVSNKALPAPIEKTISKAKGQPREPQVYTLPPSREEMTKNQVSLTCLVKGFYPSDIAVEWESNGQPENNYKTTPPVLDSDGSFFLYSRLTVDKSRWQQGNVFSCSVMHEALHNHYTQKSLSLSPG
light 2: DIQMTQSPTSLSASVGDRVTITCRASQGISSWLTWYQQKPEKAPKSLIYAASSLQSGVPSRFSGSGSGTDFTLTISSLQPEDFATYYCQQYDSYPITFGQGTRLEIKRTVAAPSVFIFPPSDEQLKSGTASVVCLLNNFYPREAKVQWKVDNALQSGNSQESVTEQDSKDSTYSLSSTLTLSKADYEKHKVYACEVTHQGLSSPVTKSFNRGEC
notes: also called bsG1-huCD3xCD30-MDX060
B2: bsG1-huCD3-FEALxCD30-MDX060-FERR (bispecific antibody, human IgG1, kappa, lambda)
heavy 1: not shown
light 1: not shown
heavy 2: B1 heavy 2 with G231R, A260D
light 2: B1 light 2
notes: Bispecific IgG1 made by controlled Fab-arm exchange; also called bsIgG1-huCD3-FEALxCD30-MDX060-FERR; bsG1-huCD3×CD30-MDX060

Assays:
human CD30 [1] = target: T1, human CD30; assay: flow cytometry, KI-JK cells, experiment N = 1
human CD30 [2] = target: T1, human CD30; assay: flow cytometry, L-428 cells, experiment N = 1
human CD30 [3] = target: T1, human CD30; assay: flow cytometry, L-428 cells, experiment N = 2
human CD30 [4] = target: T1, human CD30; assay: flow cytometry, HDLM-2 cells, experiment N = 1
human CD30 [5] = target: T1, human CD30; assay: flow cytometry, HDLM-2 cells, experiment N = 2
human CD30 [6] = target: T1, human CD30; assay: cell-based or functional assay
human CD30 [7] = target: T1, human CD30; assay: flow cytometry, DEL cells (ALCL), range of 3 tests
Experimental: (§1) Cells (3×10⁴ cells/well) were incubated in polystyrene 96-well round-bottom plates (Greiner bio-one, cat. no. 650180) with serial dilutions of antibodies (range 0.0046 to 10 μg/mL in 3-fold dilution steps) in 50 μL staining buffer at 4° C. for 30 min. After washing twice in staining buffer, cells were incubated with 50 μL secondary antibody at 4° C. for 30 min. […] Next, cells were washed twice in staining buffer, resuspended in 100 μL staining buffer supplemented with TO-PRO-3 iodide (Thermo Fisher Scientific; cat. no. T3605; 1:8000 dilution) and analyzed on a FACSCelesta flow cytometer (BD Biosciences, USA). Live cells were gated based on FSC/SSC and absence of TOPRO-3 staining. Binding curves were analyzed by non-linear regression of log-transformed data (sigmoidal dose-response with variable slope, four parameters) using GraphPad Prism V7.02 software (GraphPad Software, San Diego, CA, USA).

human CD30 [8] = target: T1, human CD30; assay: flow cytometry, KM-H2 cells (HL), range of 3 tests
Experimental: as §1

human CD30 [9] = target: T1, human CD30; assay: flow cytometry, HDLM-2 cells (HL), range of 3 tests
Experimental: as §1

human CD30 [10] = target: T1, human CD30; assay: flow cytometry, JVM-2 cells (MCL), range of 3 tests
Experimental: as §1

human CD30 [11] = target: T1, human CD30; assay: flow cytometry, SUP-T1 cells (TLL), range of 2 tests
Experimental: as §1

human CD30 [12] = target: T1, human CD30; assay: flow cytometry, HDLM-2 cells (HL), average of 3 tests
Experimental: as §1

human CD30 [13] = target: T1, human CD30; assay: flow cytometry, L-1236 cells (HL), average of 3 tests
Experimental: as §1

human CD30 [14] = target: T1, human CD30; assay: flow cytometry, DL-40 cells (ALCL), average of 3 tests
Experimental: as §1

human CD30 [15] = target: T1, human CD30; assay: flow cytometry, KARPAS-299 cells (ALCL), average of 2 tests
Experimental: as §1

Binder | EC50 (human CD30 [1]) | EC50 (human CD30 [2]) | EC50 (human CD30 [3]) | EC50 (human CD30 [4]) | EC50 (human CD30 [5]) | T-cell mediated cytotoxicity of KI-JK cells, average IC50 (human CD30 [6]) | T-cell mediated cytotoxicity of L-428 cells, average IC50 (human CD30 [6]) | EC50 (human CD30 [7]) | EC50 (human CD30 [8]) | EC50 (human CD30 [9]) | EC50 (human CD30 [10]) | EC50 (human CD30 [11]) | EC50 (human CD30 [12]) | EC50 (human CD30 [13]) | EC50 (human CD30 [14]) | EC50 (human CD30 [15])
B1 | 0.16 µg/mL | 0.154 µg/mL | 0.0705 µg/mL | 0.145 µg/mL | 0.12 µg/mL | – | – | – | – | – | – | – | – | – | – | –
B2 | – | – | – | – | – | 0.0015 µg/mL | 0.002 µg/mL | 0.143 to 0.267 µg/mL | 0.141 to 0.182 µg/mL | 0.125 to 0.221 µg/mL | 0.107 to 0.141 µg/mL | 0.257 to 0.434 µg/mL | 0.167 µg/mL | 0.202 µg/mL | 0.236 µg/mL | 0.202 µg/mL
